Test results: patent US20190381169A1, “PHARMACEUTICAL COMBINATIONS FOR IMMUNOTHERAPY” (Technische Universitat Dresden, priority 2014, published 2019)
Entries after “also recorded” stand apart in the source; their conditions may differ.

Columns and labels:
p75^NTR [1] = biological target: T1, p75^NTR (Mus musculus, UniProt Q9Z0W1); details: in vivo
T1 construct: endogenous in cells; host or cells: murine plasmacytoid dendritic cells differentiated in vitro from bone marrow with Flt3-L (p75NTR+/+ wildtype; p75NTR-/- as control)
T1 sequence (Q9Z0W1 32-427): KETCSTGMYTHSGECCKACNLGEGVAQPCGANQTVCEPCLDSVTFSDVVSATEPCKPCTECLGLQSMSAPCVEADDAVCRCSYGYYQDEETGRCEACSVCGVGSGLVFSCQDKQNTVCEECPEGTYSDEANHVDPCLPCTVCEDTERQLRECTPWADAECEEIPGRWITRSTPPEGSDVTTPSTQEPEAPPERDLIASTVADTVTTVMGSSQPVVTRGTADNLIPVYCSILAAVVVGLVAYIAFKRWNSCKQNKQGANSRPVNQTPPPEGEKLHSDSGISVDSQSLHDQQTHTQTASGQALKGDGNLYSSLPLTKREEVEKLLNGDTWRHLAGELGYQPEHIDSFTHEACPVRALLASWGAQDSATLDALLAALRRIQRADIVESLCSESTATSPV

p75^NTR [2] = biological target: T1, p75^NTR; assay: Cytokine secretion and TLR9 expression of CpG stimulated murine PDCs; format: cell-based
Method: Murine PDC were generated in vitro as follows: Bone marrow cells were isolated by flushing femur and tibia of mice. Erythrocytes were lysed using ACK buffer. Remaining cells were washed and cultured at a density of 2×10^6 cells per ml in RPMI 1640 medium supplemented with 10% FCS, 1 mM sodium pyruvat, 2 mM L-glutamine, 100 IU per ml penicillin, 100 μg/ml streptomycin, 10 mM HEPES buffer and 0.1 mM β-mercaptoethanol. To differentiate bone marrow cells into PDCs, 100 ng/ml Flt3-L (fms-like tyrosine kinase 3-ligand) was added to the cells. After 8 days of culture PDCs were enriched by removing the CD11b^+ fraction using CD11b Microbeads (Miltenyi Biotec) according to manufacturer instructions. Dead cells were excluded using Dead cell removal Kit (Miltenyi Biotec). Purity of PDCs was evaluated by flow cytometry (CD11b^−CD11c^+B220^+Siglec-H^+).
Murine PDC express the low affinity neurotrophin receptor p75^NTR but not the high affinity neurotrophin receptors (FIGS. 3A, 3B). […] Furthermore, only p75^NTR expressing PDC (p75^NTR+/+) increased the CPG-ODNs Class B induced secretion of the Th2 response inducing cytokines IL-6 and TNFα in the presence of NGF (FIG. 3D).

NGF: Nerve growth factor, best characterized neurotrophin; natural p75^NTR agonist (R&D Systems)
type I diabetes incidence without CpG B (p75^NTR [1]): no NGF dependent effect
time of onset of PDC induced type I diabetes (diabetes free time) (p75^NTR [1]; iv): occurred at a significant later stage; also recorded: significantly prolonged
IFNα secretion (p75^NTR [2]; CPG-ODNs Class A (CpG A) stimulated p75^NTR+/+ PDCs, increasing NGF levels): decreasing levels; also recorded: reduced
expression of TLR9 (p75^NTR [2]; CpG A stimulated p75^NTR+/+ PDCs, NGF added): reduced expression; also recorded: negatively influenced
CPG-ODNs Class B induced secretion of IL-6 and TNFα (p75^NTR [2]; p75^NTR+/+ PDC in presence of NGF): increased
CpG-induced increase in TLR9 expression level (p75^NTR [2]; p75^NTR+/+ PDCs, CpG A or CpG B, presence of NGF): significantly decreased
TLR9 expression of p75^NTR−/− PDCs (p75^NTR [2]; p75^NTR−/− PDCs, CpG A or CpG B stimulation, NGF added): does not display a NGF induced alteration of TLR9 expression; also recorded: showed now difference in TLR9 expression
